From article PMC9798004 (Frontiers in Psychiatry, 2022)

How the values were obtained:
Assay in all cases: PathHunter β-arrestin assay
Assay type in all cases: cell-based
BDKRB1 = target: T1, BDKRB1 (Homo sapiens, UniProt P46663); details: screen, control agonist; CHO, 37C, 2HR
T1 construct: purchased Eurofins DiscoverX (PathHunter gpcrMAX)

NPSR1b = target: T2, NPSR1b (Homo sapiens, UniProt Q6W5P4); details: screen, control agonist; U2OS, 37C, 2HR
T2 construct: purchased Eurofins DiscoverX (PathHunter gpcrMAX)
T2 sequence (Q6W5P4 1-377 isoform Q6W5P4-4): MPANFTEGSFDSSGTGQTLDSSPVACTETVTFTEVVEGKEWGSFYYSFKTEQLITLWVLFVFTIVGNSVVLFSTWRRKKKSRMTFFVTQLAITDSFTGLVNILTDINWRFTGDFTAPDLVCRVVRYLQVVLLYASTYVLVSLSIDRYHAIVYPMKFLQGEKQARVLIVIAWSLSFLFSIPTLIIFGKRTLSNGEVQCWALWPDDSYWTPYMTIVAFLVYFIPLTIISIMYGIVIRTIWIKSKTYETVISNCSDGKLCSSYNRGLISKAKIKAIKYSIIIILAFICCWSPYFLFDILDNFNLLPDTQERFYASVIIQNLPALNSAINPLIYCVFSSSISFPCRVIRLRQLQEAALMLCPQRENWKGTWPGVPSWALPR

NPY1R = target: T3, NPY1R (Homo sapiens, UniProt P25929); details: screen, control agonist; CHO, RT, 2HR
T3 construct: purchased Eurofins DiscoverX (PathHunter gpcrMAX)
T3 sequence (P25929 1-384): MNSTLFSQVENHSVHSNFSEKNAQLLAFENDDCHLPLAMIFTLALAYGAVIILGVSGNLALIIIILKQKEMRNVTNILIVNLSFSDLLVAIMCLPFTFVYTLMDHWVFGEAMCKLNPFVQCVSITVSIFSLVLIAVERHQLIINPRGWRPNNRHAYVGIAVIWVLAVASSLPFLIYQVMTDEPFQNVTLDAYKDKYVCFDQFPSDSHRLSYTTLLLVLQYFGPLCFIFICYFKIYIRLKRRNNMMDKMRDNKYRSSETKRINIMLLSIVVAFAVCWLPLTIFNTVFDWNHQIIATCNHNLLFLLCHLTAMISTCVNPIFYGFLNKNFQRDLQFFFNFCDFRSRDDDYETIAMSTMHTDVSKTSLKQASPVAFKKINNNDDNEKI

PRLHR = target: T4, PRLHR (Homo sapiens, UniProt P49683); details: screen, control agonist; CHO, 37C, 2HR
T4 construct: purchased Eurofins DiscoverX (PathHunter gpcrMAX)
T4 sequence (P49683 1-370): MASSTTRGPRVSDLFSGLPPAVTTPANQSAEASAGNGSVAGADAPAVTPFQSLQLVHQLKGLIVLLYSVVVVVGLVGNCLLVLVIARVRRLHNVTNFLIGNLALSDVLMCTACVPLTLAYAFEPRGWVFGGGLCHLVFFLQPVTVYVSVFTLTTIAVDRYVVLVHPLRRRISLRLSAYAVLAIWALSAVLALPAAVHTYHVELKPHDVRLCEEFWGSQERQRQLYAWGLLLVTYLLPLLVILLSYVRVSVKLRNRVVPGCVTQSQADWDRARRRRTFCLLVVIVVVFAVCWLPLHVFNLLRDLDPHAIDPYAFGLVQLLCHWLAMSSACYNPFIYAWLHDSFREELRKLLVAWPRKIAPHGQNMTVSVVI

RXFP3 = target: T5, RXFP3 (Homo sapiens, UniProt Q9NSD7); details: screen, control agonist; CHO, 37C, 2HR
T5 construct: purchased Eurofins DiscoverX (PathHunter gpcrMAX)
T5 sequence (Q9NSD7 1-469): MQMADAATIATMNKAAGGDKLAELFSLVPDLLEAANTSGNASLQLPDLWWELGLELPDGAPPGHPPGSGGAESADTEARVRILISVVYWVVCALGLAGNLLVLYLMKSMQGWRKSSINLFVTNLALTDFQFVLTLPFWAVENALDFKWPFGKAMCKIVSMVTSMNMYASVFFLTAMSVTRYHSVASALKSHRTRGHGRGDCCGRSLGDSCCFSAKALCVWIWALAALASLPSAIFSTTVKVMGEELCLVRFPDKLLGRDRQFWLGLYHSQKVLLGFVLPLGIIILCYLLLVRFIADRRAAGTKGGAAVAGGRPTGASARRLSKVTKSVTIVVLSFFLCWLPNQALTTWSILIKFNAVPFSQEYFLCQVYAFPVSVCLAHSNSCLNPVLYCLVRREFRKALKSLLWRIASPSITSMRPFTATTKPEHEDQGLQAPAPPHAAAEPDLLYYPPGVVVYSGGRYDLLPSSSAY

TACR3 = target: T6, TACR3 (Homo sapiens, UniProt P29371); details: screen, control agonist; CHO, 37C, 2HR
T6 construct: purchased Eurofins DiscoverX (PathHunter gpcrMAX)
T6 sequence (P29371 1-465): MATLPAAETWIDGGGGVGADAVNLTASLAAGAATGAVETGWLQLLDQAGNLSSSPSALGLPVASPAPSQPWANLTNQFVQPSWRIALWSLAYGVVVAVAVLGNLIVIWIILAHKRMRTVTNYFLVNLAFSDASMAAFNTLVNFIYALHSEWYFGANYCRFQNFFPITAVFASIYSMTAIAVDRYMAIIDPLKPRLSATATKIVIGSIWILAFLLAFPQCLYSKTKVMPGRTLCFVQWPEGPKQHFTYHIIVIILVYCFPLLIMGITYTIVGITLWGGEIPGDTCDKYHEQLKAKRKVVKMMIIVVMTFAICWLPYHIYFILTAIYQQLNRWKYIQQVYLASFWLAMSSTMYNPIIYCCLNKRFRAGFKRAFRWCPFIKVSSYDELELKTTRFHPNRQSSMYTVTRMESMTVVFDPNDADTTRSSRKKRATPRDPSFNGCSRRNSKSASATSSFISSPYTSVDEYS

PTHR2 = target: T7, PTHR2 (Homo sapiens, UniProt P49190); details: screen, control agonist; CHO, 37C, 2HR
T7 construct: purchased Eurofins DiscoverX (PathHunter gpcrMAX)
T7 sequence (P49190 25-550): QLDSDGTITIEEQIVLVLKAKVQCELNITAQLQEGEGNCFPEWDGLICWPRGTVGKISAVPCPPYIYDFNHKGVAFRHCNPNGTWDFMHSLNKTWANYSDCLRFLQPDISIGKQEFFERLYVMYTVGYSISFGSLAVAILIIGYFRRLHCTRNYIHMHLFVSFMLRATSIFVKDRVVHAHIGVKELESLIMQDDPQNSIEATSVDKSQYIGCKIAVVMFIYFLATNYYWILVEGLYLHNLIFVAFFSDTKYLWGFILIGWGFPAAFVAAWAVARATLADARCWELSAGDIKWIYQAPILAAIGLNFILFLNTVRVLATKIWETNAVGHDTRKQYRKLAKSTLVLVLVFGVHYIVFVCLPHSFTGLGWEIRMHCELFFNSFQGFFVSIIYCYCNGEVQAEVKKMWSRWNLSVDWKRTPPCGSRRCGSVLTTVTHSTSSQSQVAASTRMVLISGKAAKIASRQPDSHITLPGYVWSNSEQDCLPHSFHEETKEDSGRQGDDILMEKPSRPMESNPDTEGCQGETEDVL

SSTR3 = target: T8, SSTR3 (Homo sapiens, UniProt P32745); details: screen, control agonist; CHO, 37C, 2HR
T8 construct: purchased Eurofins DiscoverX (PathHunter gpcrMAX)
T8 sequence (P32745 whole entry): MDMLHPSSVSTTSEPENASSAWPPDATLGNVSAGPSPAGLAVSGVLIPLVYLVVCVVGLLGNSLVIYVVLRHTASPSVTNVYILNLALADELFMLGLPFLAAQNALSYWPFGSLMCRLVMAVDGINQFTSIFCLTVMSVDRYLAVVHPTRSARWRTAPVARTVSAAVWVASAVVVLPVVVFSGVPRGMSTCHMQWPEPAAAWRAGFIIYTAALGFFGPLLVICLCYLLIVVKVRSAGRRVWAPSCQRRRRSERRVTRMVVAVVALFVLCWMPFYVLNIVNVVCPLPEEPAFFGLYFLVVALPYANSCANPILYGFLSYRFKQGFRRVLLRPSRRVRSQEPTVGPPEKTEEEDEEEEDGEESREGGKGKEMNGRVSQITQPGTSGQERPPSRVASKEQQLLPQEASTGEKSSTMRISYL

PROKR1 = target: T9, PROKR1 (Homo sapiens, UniProt Q8TCW9); details: screen, control agonist; CHO, 37C, 2HR
T9 construct: purchased Eurofins DiscoverX (PathHunter gpcrMAX)
T9 sequence (Q8TCW9 whole entry): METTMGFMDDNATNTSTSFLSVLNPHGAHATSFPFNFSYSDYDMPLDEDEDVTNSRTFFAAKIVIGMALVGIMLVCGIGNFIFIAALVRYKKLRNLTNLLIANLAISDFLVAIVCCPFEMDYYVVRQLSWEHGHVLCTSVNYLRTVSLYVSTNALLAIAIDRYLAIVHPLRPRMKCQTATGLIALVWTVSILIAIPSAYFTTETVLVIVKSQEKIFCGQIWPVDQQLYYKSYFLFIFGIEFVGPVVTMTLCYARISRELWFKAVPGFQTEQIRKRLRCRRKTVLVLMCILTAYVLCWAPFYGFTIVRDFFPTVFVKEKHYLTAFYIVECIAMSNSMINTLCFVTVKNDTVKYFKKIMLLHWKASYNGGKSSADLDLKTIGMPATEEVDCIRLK

PROKR2 = target: T10, PROKR2 (Homo sapiens, UniProt Q8NFJ6); details: screen, control agonist; CHO, 37C, 2HR
T10 construct: purchased Eurofins DiscoverX (PathHunter gpcrMAX)
T10 sequence (Q8NFJ6 whole entry): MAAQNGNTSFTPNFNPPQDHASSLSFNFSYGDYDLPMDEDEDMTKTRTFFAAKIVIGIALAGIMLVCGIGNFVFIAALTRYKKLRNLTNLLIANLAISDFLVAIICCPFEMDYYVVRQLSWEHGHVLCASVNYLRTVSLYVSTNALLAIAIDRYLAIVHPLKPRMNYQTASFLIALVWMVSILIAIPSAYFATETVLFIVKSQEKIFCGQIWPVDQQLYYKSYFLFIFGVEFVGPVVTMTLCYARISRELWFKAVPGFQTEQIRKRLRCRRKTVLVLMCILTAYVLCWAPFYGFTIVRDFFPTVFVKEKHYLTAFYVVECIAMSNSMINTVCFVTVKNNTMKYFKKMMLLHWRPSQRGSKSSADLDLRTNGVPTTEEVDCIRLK

C5AR1 = target: T11, C5AR1 (Homo sapiens, UniProt P21730); details: screen, control agonist; CHO, RT, 2HR
T11 construct: purchased Eurofins DiscoverX (PathHunter gpcrMAX)
T11 sequence (P21730 1-350): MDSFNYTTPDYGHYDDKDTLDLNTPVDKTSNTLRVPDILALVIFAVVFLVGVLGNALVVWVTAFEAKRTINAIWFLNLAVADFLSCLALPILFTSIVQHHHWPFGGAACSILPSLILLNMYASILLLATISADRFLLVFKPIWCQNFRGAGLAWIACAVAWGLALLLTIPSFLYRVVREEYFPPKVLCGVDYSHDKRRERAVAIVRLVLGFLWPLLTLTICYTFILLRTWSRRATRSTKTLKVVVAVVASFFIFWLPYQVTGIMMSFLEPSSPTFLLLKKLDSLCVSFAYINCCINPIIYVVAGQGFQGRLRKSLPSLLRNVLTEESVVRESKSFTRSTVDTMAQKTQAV

C5L2 = target: T12, C5L2 (Homo sapiens, UniProt Q9P296); details: screen, control agonist; CHO, 37C, 2HR
T12 construct: purchased Eurofins DiscoverX (PathHunter gpcrMAX)
T12 sequence (Q9P296 whole entry): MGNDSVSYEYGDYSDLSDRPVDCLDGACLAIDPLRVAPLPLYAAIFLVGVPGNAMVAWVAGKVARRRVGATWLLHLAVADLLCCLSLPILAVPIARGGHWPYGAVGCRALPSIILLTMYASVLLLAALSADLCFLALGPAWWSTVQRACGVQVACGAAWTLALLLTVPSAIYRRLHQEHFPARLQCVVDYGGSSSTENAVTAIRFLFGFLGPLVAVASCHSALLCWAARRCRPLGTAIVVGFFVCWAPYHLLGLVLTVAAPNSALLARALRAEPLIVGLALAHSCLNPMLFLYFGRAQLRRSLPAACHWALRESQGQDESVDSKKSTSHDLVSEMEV

T1 sequence (P46663 whole entry): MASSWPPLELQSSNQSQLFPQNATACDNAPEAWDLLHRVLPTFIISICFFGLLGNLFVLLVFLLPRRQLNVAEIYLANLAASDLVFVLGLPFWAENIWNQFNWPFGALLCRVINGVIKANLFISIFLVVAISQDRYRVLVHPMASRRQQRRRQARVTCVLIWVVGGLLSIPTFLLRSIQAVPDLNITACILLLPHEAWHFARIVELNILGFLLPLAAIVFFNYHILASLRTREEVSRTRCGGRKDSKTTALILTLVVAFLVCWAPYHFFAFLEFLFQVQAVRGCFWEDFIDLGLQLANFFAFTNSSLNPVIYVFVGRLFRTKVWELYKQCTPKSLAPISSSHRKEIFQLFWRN

LDA-Bradykinin
EC80 (BDKRB1): 4.67 nM

Neuropeptide S (SFRNGVGTGMKKTSFQRAKS; Neuropeptide S; UniProt P0C0P6 70-89, looked up) [control agonist]
EC80 (NPSR1b): 45.7 nM

Peptide YY: control agonist
EC80 (NPY1R): 4.18 nM

PrRP-31
EC80 (PRLHR): 1.8 nM

Relaxin-3
EC80 (RXFP3): 62.7 nM

Substance P
EC80 (TACR3): 80.4 nM

TIP-39
EC80 (PTHR2): 4.8 nM

Tyr-SST 14
EC80 (SSTR3): 54.2 nM

B1: EG VEGF: control agonist for PROKR1 and PROKR2 (protein, UniProt P58294 20-105, looked up)
Prokineticin-1: AVITGACERDVQCGAGTCCAISLWLRGLRMCTPLGREGEECHPGSHKVPFFRKRKHHTCPCLPNLLCSRFPDGRYRCSMDLKNINF
EC80 (PROKR1): 53.3 nM
EC80 (PROKR2): 30.2 nM

B2: Complement C5a: control agonist (protein, UniProt P01031 678-751, looked up)
C5a anaphylatoxin: TLQKKIEEIAAKYKHSVVKKCCYDGACVNNDETCEQRAARISLGPRCIKAFTECCVVASQLRANISHKDMQLGR
modifications: C5a anaphylatoxin
notes: control agonist
EC80 (C5AR1): 3.6 nM
EC80 (C5L2): 2.7 nM
